{"source": "paper PMC13544220", "about": "“Glycemic and bodyweight effects of GIPR coding variation reflect differences in surface expression and intrinsic functional impairment” (Science Advances, 2026);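 for AD293 Surface: scaled to the experimental average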;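 for Surface SNAP-GIPR expression: scaled to the experimental average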", "molecules": {"B1": {"name": "R131S (protein, UniProt P48546 22-466, looked up, variant R131S)", "Gastric inhibitory …": "RAETGSKGQTAGELYQRWERYRRECQETLAAAEPPSGLACNGSFDMYVCWDYAAPNATARASCPWYLPWHHHVAAGFVLRQCGSDGQWGLWRDHTQCENPEKNEAFLDQSLILERLQVMYTVGYSLSLATLLLALLILSLFRRLHCTRNYIHINLFTSFMLRAAAILSRDRLLPRPGPYLGDQALALWNQALAACRTAQIVTQYCVGANYTWLLVEGVYLHSLLVLVGGSEEGHFRYYLLLGWGAPALFVIPWVIVRYLYENTQCWERNEVKAIWWIIRTPILMTILINFLIFIRILGILLSKLRTRQMRCRDYRLRLARSTLTLVPLLGVHEVVFAPVTEEQARGALRFAKLGFEIFLSSFQGFLVSVLYCFINKEVQSEIRRGWHHCRLRRSLGEEQRQLPERAFRALPSGSGPGEVPTSRGLSSGTLPGPGNEASRELESYC"}}, "format_in_all_cases": "cell-based, human", "key": {"[1]": {"system": "wild-type and variant SNAP-GIPR", "test": "Single-concentration GIP cAMP response by HTRF in AD293 cells", "conditions": "Fig S3F, HTRF, mean", "description": "(§1) All variants were tested in parallel on each occasion to control for transfection efficiency differences between experiments."}, "[2]": {"system": "wild-type and variant SNAP-GIPR", "test": "Constitutive and agonist-mediated internalization, reversible SNAP-tag labelling, INS-1 cells", "design": "key to Internalisation, GIP-only / Internalisation, Vehicle / Internalisation, +GIP: % internalization: residual fluorescence after Mesna vs pre-Mesna", "conditions": "Mean", "description": "(§2) Twenty-four hours before the experiment, AD293 or INS-1 cells were reverse transfected with GIPR variant or wild-type plasmids using Lipofectamine 2000 in 96-well, clear-bottom, black microplates precoated with poly-D-lysine. All variants were tested in parallel on each occasion to control for transfection efficiency differences between experiments. […] Media were then removed, cells washed with PBS and then placed in TNE buffer (pH 8.6) for imaging. […] After 10 min, the well was reimaged again to detect remaining fluorescence from internalized GIPR. Images were analyzed as in the “Assessment of surface GIPR expression by SNAP-tag labeling in cell lines” section, with the residual specific fluorescence after Mesna treatment expressed relative to the pre-Mesna value to establish percentage internalization."}, "[3]": {"system": "wild-type and variant SNAP-GIPR", "test": "Surface SNAP-GIPR expression (SNAP-tag labelling) in INS-1 cells", "conditions": "Fig 4G; Mean", "description": "(§3) Twenty-four hours before the experiment, AD293 or INS-1 cells were reverse transfected with GIPR variant or wild-type plasmids using Lipofectamine 2000 in 96-well, clear-bottom, black microplates precoated with poly-D-lysine. All variants were tested in parallel on each occasion to control for transfection efficiency differences between experiments. Cells were then labeled using the cell-impermeant probe SNAP-Surface Alexa Fluor 647 (500 nM, New England Biolabs, USA) for 10 min at room temperature to label only surface GIPR. […] Several fields of view (FOVs) were acquired within each well using a 20X, 0.75–numerical aperture (NA) air objective. Surface GIPR fluorescence was quantified after flat-field correction using BaSiC ([72]) and segmenting using Phantast ([73]), which generates a mask based on the phase contrast images to demarcate cell versus noncell. Wide-field imaging of the surface-specific labeling achieved by SNAP-Surface probes means that surface expression can be established from whole-cell fluorescence, after subtracting nonspecific fluorescence from a separate well containing nontransfected cells processed in parallel from the same experiment. Data were normalized by dividing by the average specific signal across each experiment, or by the wild-type value, as indicated in the figure legends."}, "[4]": {"system": "wild-type and variant SNAP-GIPR", "test": "cADDis cAMP imaging in AD293 cells, ensemble, expression-matched and per decile", "conditions": "Fig S3F, cADDis, mean", "description": "AD293 cells were reverse transfected with the GIPR variant or wild-type plasmids using Lipofectamine 2000 and cotransduced with the cADDis Green Up BacMam (10 μl per well, Montana Molecular, USA), in 96-well, poly-D-lysine–coated microplates. All variants were tested in parallel on each occasion to control for transfection efficiency differences between experiments. After 24 hours, cells were labeled using 500 nM SNAP-Surface Alexa Fluor 647 for 10 min at room temperature. Cells were washed three times and then imaged in KRBH buffer containing 6 mM glucose and 0.1% BSA. Imaging was performed at 37°C by wide-field microscopy using the same microscope as in the “Assessment of surface GIPR expression by SNAP-tag labeling in cell lines” section, with 9 FOVs for both cADDis and SNAP-Surface fluorescence acquired from each well using a 10X, 0.45 NA air objective. […] Flat-field correction was performed using BaSiC ([72]), drift correction was performed using SIFT, and a maximum intensity projection of the cADDis channel was used to segment individual cells. cAMP responses were determined by quantifying the cADDis fluorescence intensity for each cell at each time point. Nonviable cells or noncell objects were excluded according to criteria for allowable cell IBMX/FSK responses. […] The cADDis mask was then used to quantify the SNAP-Surface signal from each cell. Wild-type SNAP-Surface readings were split into deciles, and these deciles were subsequently used to categorize variant-transfected cells to match against the wild type. After trimming the top and bottom deciles, the mean was taken of each decile mean for surface expression level or cAMP response, which achieved matched expression levels by effectively applying an inverse weighting to counteract differences in cell number in each decile for different variants. Ensemble expression levels or cAMP responses were calculated without regard to deciles. Variant cADDis responses were also analyzed within their own surface expression deciles."}, "[5]": {"system": "wild-type and variant SNAP-GIPR", "test": "Constitutive and agonist-mediated internalization, reversible SNAP-tag labelling, AD293 cells", "design": "key to Internalisation, Vehicle / Internalisation, +GIP / Internalisation, GIP-only: % internalization: residual fluorescence after Mesna vs pre-Mesna; Surface expression: unit not given here", "conditions": "Mean", "description": "as §2"}, "[6]": {"system": "wild-type and variant SNAP-GIPR", "test": "Surface SNAP-GIPR expression (SNAP-tag labelling) in AD293 cells", "conditions": "for AD293 Surface: Fig S3E, mean; for Surface SNAP-GIPR expression: sheet Fig 1C", "description": "as §3"}, "[7]": {"system": "wild-type and variant SNAP-GIPR", "test": "Single-concentration GIP cAMP response by HTRF in INS-1 cells", "conditions": "Fig S3E, mean", "description": "as §1"}}}
{"molecule": "B1", "values": [{"measurement": "AD293 100 pM HTRF", "setting": "[1]; AD293, 100 pM", "value": 0.4337}, {"measurement": "AD293 100 nM HTRF", "setting": "[1]; AD293, 100 nM", "value": 1.306}, {"measurement": "+GIP internalisation (100 nM)", "setting": "[2]; Fig 4G, GIP 100 nM", "value": 0.7402}, {"measurement": "GIP-specific internalisation (100 nM)", "setting": "[2]; Fig 4G, GIP 100 nM", "value": 0.1769}, {"measurement": "Constitutive internalisation (100 nM)", "setting": "[2]; Fig 4G", "value": 0.5633}, {"measurement": "Internalisation, +GIP", "setting": "[2]; Fig S4C, INS-1", "value": 45.9917}, {"measurement": "Internalisation, GIP-only", "setting": "[2]; Fig S4C, INS-1", "value": 10.9733}, {"measurement": "Internalisation, Vehicle", "setting": "[2]; Fig S4C, INS-1", "value": 35.0183}, {"measurement": "Surface expression", "setting": "[3]", "value": 1.447}, {"measurement": "AD293 100 pM cADDis", "setting": "[4]; AD293, 100 pM", "value": 25.6916}, {"measurement": "AD293 100 nM cADDis", "setting": "[4]; AD293, 100 nM", "value": 36.03}, {"measurement": "+GIP internalisation (100 nM)", "setting": "[5]; Fig 4E, GIP 100 nM", "value": 0.7235}, {"measurement": "GIP-specific internalisation (100 nM)", "setting": "[5]; Fig 4E, GIP 100 nM", "value": 0.2116}, {"measurement": "Constitutive internalisation (100 nM)", "setting": "[5]; Fig 4E", "value": 0.5118}, {"measurement": "Surface expression", "setting": "[5]; Fig 4E", "value": 1.308}, {"measurement": "Internalisation, +GIP", "setting": "[5]; Fig S4C, AD293", "value": 55.4494}, {"measurement": "Internalisation, GIP-only", "setting": "[5]; Fig S4C, AD293", "value": 16.1484}, {"measurement": "Internalisation, Vehicle", "setting": "[5]; Fig S4C, AD293", "value": 39.3009}, {"measurement": "AD293 Surface", "setting": "[6]; column repeated, paired with cAMP 100 nM", "value": 1.362}, {"measurement": "AD293 Surface", "setting": "[6]; paired with cAMP 100 pM", "value": 1.362}, {"measurement": "Surface SNAP-GIPR expression", "setting": "[6]; replicate 1", "value": 0.7106}, {"measurement": "Surface SNAP-GIPR expression", "setting": "[6]; replicate 2", "value": 2.058}, {"measurement": "Surface SNAP-GIPR expression", "setting": "[6]; replicate 3", "value": 0.7777}, {"measurement": "Surface SNAP-GIPR expression", "setting": "[6]; replicate 4", "value": 1.042}, {"measurement": "Surface SNAP-GIPR expression", "setting": "[6]; replicate 5", "value": 1.12}, {"measurement": "Surface SNAP-GIPR expression", "setting": "[6]; replicate 6", "value": 1.654}, {"measurement": "Surface SNAP-GIPR expression", "setting": "[6]; replicate 7", "value": 1.227}, {"measurement": "Surface SNAP-GIPR expression", "setting": "[6]; replicate 8", "value": 1.559}, {"measurement": "Surface SNAP-GIPR expression", "setting": "[6]; replicate 9", "value": 1.551}, {"measurement": "Surface SNAP-GIPR expression", "setting": "[6]; replicate 10", "value": 1.359}, {"measurement": "Surface SNAP-GIPR expression", "setting": "[6]; replicate 11", "value": 1.194}, {"measurement": "Surface SNAP-GIPR expression", "setting": "[6]; replicate 12", "value": 1.256}, {"measurement": "Surface SNAP-GIPR expression", "setting": "[6]; replicate 13", "value": 1.318}, {"measurement": "Surface SNAP-GIPR expression", "setting": "[6]; replicate 14", "value": 0.9106}, {"measurement": "Surface SNAP-GIPR expression", "setting": "[6]; replicate 15", "value": 1.304}, {"measurement": "Surface SNAP-GIPR expression", "setting": "[6]; replicate 16", "value": 1.372}, {"measurement": "Surface SNAP-GIPR expression", "setting": "[6]; replicate 17", "value": 1.574}, {"measurement": "Surface SNAP-GIPR expression", "setting": "[6]; replicate 18", "value": 1.448}, {"measurement": "Surface SNAP-GIPR expression", "setting": "[6]; replicate 19", "value": 1.382}, {"measurement": "Surface SNAP-GIPR expression", "setting": "[6]; replicate 20", "value": 1.357}, {"measurement": "Surface SNAP-GIPR expression", "setting": "[6]; replicate 21", "value": 1.273}, {"measurement": "Surface SNAP-GIPR expression", "setting": "[6]; replicate 22", "value": 1.627}, {"measurement": "Surface SNAP-GIPR expression", "setting": "[6]; replicate 23", "value": 1.424}, {"measurement": "Surface SNAP-GIPR expression", "setting": "[6]; replicate 24", "value": 1.463}, {"measurement": "Surface SNAP-GIPR expression", "setting": "[6]; replicate 25", "value": 1.446}, {"measurement": "Surface SNAP-GIPR expression", "setting": "[6]; replicate 26", "value": 1.405}, {"measurement": "Surface SNAP-GIPR expression", "setting": "[6]; replicate 27", "value": 1.475}, {"measurement": "Surface SNAP-GIPR expression", "setting": "[6]; replicate 28", "value": 1.453}, {"measurement": "Surface SNAP-GIPR expression", "setting": "[6]; replicate 29", "value": 1.54}, {"measurement": "Surface SNAP-GIPR expression", "setting": "[6]; replicate 30", "value": 1.363}, {"measurement": "Surface SNAP-GIPR expression", "setting": "[6]; replicate 31", "value": 1.317}, {"measurement": "Surface SNAP-GIPR expression", "setting": "[6]; replicate 32", "value": 1.55}, {"measurement": "Surface SNAP-GIPR expression", "setting": "[6]; replicate 33", "value": 1.587}, {"measurement": "Surface SNAP-GIPR expression", "setting": "[6]; replicate 34", "value": 1.477}, {"measurement": "Surface SNAP-GIPR expression", "setting": "[6]; replicate 35", "value": 1.359}, {"measurement": "Surface SNAP-GIPR expression", "setting": "[6]; replicate 36", "value": 1.207}, {"measurement": "Surface SNAP-GIPR expression", "setting": "[6]; replicate 37", "value": 1.251}, {"measurement": "Surface SNAP-GIPR expression", "setting": "[6]; replicate 38", "value": 1.505}, {"measurement": "Surface SNAP-GIPR expression", "setting": "[6]; replicate 39", "value": 1.263}, {"measurement": "Surface SNAP-GIPR expression", "setting": "[6]; replicate 40", "value": 1.363}, {"measurement": "Surface SNAP-GIPR expression", "setting": "[6]; replicate 41", "value": 1.33}, {"measurement": "INS-1 cAMP (100 nM)", "setting": "[7]", "value": 1.548}]}
